{"source": "patent US20220195007A1", "molecular_target": "CD20 polypeptide (safety switch) expressed on transduced T cells (human) (UniProt P11836)", "sequence (P11836 whole entry)": "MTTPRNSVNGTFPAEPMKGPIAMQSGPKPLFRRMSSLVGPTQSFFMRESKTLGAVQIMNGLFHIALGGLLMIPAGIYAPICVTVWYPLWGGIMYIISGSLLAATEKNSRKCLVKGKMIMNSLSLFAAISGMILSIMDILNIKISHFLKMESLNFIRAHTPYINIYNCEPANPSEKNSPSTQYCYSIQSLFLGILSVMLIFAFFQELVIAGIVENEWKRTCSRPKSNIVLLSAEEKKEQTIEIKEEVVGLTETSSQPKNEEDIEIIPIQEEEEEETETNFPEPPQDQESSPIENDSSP", "assay": "cell-based or functional assay"}
{"substance": "Rituximab (Rituxan®, Biogen) (antibody)", "values": [{"measurement": "4-hour chromium release assay on IL13Rα2-CAR^CD20 T cells", "result": 70, "unit": "%"}, {"measurement": "decrease in CD20+ cell number by flow cytometry after 1 hour (rituximab + complement vs rituximab alone)", "result": "> 30", "unit": "%"}, {"measurement": "killing of CD123-CAR T cells by rituximab and complement", "result": 80, "unit": "%"}]}
